The results in this text go back to patent US20110166064A1.

In this assay the target is Insulin-like Growth Factor I Receptor (IGF-1R) (UniProt P08069). In words: competitive displacement of 125I-IGF-I from IGF-1R, FIG. 9B. A general note: Displacement assays read how much labelled ligand stays bound in the presence of the test substance.
Sequence of Insulin-like Growth Factor I Receptor (IGF-1R) (P08069 31-1367 limits assumed): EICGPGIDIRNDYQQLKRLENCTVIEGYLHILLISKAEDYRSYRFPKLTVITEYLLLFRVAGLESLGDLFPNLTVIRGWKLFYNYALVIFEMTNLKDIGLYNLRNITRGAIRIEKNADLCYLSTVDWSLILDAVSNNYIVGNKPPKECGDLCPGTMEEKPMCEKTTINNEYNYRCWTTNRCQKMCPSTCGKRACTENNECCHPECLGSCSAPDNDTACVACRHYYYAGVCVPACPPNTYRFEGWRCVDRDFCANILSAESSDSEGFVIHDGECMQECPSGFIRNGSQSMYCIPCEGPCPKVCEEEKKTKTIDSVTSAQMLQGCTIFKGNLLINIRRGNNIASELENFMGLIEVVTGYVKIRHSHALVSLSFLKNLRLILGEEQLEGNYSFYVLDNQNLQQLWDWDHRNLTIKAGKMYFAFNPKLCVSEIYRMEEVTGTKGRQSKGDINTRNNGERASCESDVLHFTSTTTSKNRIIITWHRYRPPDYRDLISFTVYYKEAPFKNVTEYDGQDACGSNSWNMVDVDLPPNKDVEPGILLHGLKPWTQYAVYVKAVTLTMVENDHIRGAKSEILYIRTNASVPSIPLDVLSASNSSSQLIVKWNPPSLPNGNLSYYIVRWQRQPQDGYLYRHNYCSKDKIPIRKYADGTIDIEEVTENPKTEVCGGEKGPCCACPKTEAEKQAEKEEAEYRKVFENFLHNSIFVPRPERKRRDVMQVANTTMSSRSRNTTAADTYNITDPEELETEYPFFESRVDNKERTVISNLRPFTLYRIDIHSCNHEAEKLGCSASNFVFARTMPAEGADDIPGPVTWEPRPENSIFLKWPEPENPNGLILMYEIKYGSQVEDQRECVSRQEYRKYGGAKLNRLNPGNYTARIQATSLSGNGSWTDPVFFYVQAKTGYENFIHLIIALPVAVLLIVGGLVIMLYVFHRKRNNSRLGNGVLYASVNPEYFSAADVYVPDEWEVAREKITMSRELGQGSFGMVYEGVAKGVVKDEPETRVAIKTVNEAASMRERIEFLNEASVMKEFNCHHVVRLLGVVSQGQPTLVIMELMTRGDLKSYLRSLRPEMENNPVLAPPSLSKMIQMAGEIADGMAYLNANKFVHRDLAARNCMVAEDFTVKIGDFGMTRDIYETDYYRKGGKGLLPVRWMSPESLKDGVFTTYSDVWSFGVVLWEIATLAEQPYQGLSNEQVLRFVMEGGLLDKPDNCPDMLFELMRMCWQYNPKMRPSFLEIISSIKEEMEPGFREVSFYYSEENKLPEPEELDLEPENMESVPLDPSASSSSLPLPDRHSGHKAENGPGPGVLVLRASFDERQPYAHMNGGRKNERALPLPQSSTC

With “4Cl-Phe^B24-KP-insulin (ligand; para-monochloro-phenylalanine (4Cl-Phe) at B24; other documents disagree on this pair)”, the fold reduction of cross-binding relative to KP-insulin or wild-type insulin turned out to be 3 fold.
